Data published in publication PMC9801259.

Molecular target: OGG1 (UniProt O15527 1-345)
Test: EMSA

Chain of OGG1 (O15527 whole entry): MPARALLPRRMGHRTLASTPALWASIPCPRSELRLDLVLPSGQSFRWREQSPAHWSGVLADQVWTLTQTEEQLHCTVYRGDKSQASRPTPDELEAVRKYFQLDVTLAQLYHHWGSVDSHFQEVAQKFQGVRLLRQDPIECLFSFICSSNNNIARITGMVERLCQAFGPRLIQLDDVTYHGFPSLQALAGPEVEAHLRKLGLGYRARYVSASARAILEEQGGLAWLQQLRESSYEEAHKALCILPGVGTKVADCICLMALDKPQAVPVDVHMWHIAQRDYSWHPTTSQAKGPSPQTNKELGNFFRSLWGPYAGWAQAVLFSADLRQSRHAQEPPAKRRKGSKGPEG

B1: 8-oxo(d)Gua and NF-kB motif probe (Cxcl2 promoter) (dsDNA)
DNA 1: TTCCCTGGTCCCCGGGCTTTTCCAGACATCG
DNA 2: CGATGTCTGGAAAAGCCCGGGGACCAGGGAA
modifications: 8-oxo-dG in antisense strand, printed CCAG*GGAA (G after the asterisk, position 28)
binding result: binds
